Measurements from US20090280060A1, “PHOTOCHROMIC PROBES” (priority 2004, published 2009).
Read-outs that look alike come from different tables or passages of the source. Values belong to the molecule of their own block, whether it stands above or below them.

What was measured:
[1] = Thermally driven MC to SP transition, decrease of MC absorption in the dark; format: physicochemical
Description: FIG. 7. (A), Time dependent absorption spectra of the lowest energy transition of the MC state of compound 12 dissolved in ethanol at a concentration of 20 μM at 20° in the dark—the spectra, from top to bottom, were recorded at the following times: a) 0; b), 60 s, c), 120 s; d), 180 s; e), 240 s; f), 360 s; g), 420 s; h), 480 s. The lowermost curve is the absorption spectrum of the non-irradiated SP state. (B), The rate for the thermally driven MC to SP transition was determined by analyzing the log of the maximum absorption value for each spectrum shown in FIG. 7A as a function of time. The reaction rate of […] was calculated using a least squares fitting procedure. (C), Absorption spectra of the MC-G-actin conjugate (compound 9) as a function of time in the dark. Spectra are as follows: a), before irradiation; b), after 30 second irradiation with 365 nm light; c), after 5 minutes in the dark at 20°; d), after 22 minutes in the dark at 20°; e) after irradiation with 546 nm light for 30 seconds
Thermally-driven transitions between MC and SP. The rate for the thermal equilibration of MC to SP in ethanol was measured using the decrease in the maximum MC absorption value as a function of time in the dark (FIGS. 7A,B). […] This rate, however, is too fast for many of the envisioned applications of optical switches in biology. […]

[2] = Absorption maximum of the MC state; format: physicochemical
Text: The family of Ca^2+-optical switch described in this invention has built-in design features that can be used to tune the maximum of the action spectrum for the MC-SP transition. The nitro group generates a weakly fluorescent MC state, which can be used to quantify the kinetics of Ca^2+-perturbations and to image the distribution of the MC state within living cells.
The absorption properties of the MC state of the Ca^2+ switch can be tuned using different 1-nitroso-2-naphthol. […] We will investigate the photophysics of optimized Ca^2+ switches based on spironaphthoxazine. We anticipate, based on our observations of the thermally-induced MC to SP transition that the rate of photochemistry for the spironaphthoxazine will be faster that the 11 μs reported for the spirobenzopyran group (Gorner, 2001).

[3] = biological target: barbed-end of the actin filament; conditions: Ca^2+-dependent; Southwick & DiNubile, 1986; read-out: kd for binding to the barbed-end of the actin filament; cited from earlier work
G-actin [4] = biological target: T1, G-actin (Oryctolagus cuniculus, UniProt P68135); assay: CapG binding to Prodan-G-actin (fluorescence); set-up: Rabbit muscle G-actin is purified according to Marriott (1994); from tissue; host or cells: rabbit muscle; species or system Rabbit
Description: (§1) FIG. 20: Caging of CapG (A): Absorption spectra of […] samples of CapG (2), caged CapG (curve 1).
Preparation and characterization of caged CapG: Caged CapG was prepared using a modification of our published method for caging actin and profilin (Marriott, 1994; Marriott et al, 2003). In brief a purified solution of CapG (1 mg/ml) was dialyzed against 20 mM borate buffer, pH 8.5 overnight. The protein was centrifuged and the OD280 nm measured to determine the protein concentration (FIG. 8A). A 0.1 M acetone solution of NVOC-Cl was freshly prepared and added to the CapG with vigorous vortexing to a final concentration of 1 mM. This was usually realized by 2-3 additions over a 5-minute period. After 30 minutes at room temperature in the dark, the protein was centrifuged and dialyzed against 2×500 ml of G-buffer overnight. The absorption spectrum of the protein was recorded using the dialysis buffer as a reference and the amount of NVOC was determined by measuring the A350nm (E350nm=5,000 M^−1cm^−1). The concentration of protein was determined using the Bio-Rad Bradford assay. The introduction of 3-4 NVOC groups was sufficient to inhibit the formation of G-actin-CapG using two independent assays based on sensitivity of Prodan-actin to CapG binding. […]

G-actin [5] = biological target: T1, G-actin; assay: Prodan-actin polymerization kinetics; format: biochemical, Rabbit; set-up: Rabbit muscle G-actin is purified according to Marriott (1994); from tissue; host or cells: rabbit muscle
Description: as §1
Preparation and characterization of caged CapG: Caged CapG was prepared using a modification of our published method for caging actin and profilin (Marriott, 1994; Marriott et al, 2003). In brief a purified solution of CapG (1 mg/ml) was dialyzed against 20 mM borate buffer, pH 8.5 overnight. The protein was centrifuged and the OD280 nm measured to determine the protein concentration (FIG. 8A). A 0.1 M acetone solution of NVOC-Cl was freshly prepared and added to the CapG with vigorous vortexing to a final concentration of 1 mM. This was usually realized by 2-3 additions over a 5-minute period. After 30 minutes at room temperature in the dark, the protein was centrifuged and dialyzed against 2×500 ml of G-buffer overnight. The absorption spectrum of the protein was recorded using the dialysis buffer as a reference and the amount of NVOC was determined by measuring the A350nm (E350nm=5,000 M^−1cm^−1). The concentration of protein was determined using the Bio-Rad Bradford assay. The introduction of 3-4 NVOC groups was sufficient to inhibit the formation of G-actin-CapG using two independent assays based on sensitivity of Prodan-actin to CapG binding. In FIG. 20B, CapG binding to Prodan-G-actin is seen to shift the emission spectrum, from 496 nm to 465 nm, and is accompanied by a 1.5 fold (FIG. 20B, curve 1)—this signal can be used to analyze the effects of CapG on actin polymerization kinetics as shown in FIG. 20C.

- thermal reversion to the SP state [1]: within seconds
- MC state absorption maximum [2]: about 620 nm
Molecule: CN1c2cc(CBr)ccc2C(C)(C)C12C=Nc1c(ccc3ccccc13)O2 (centres unmarked) [Compound 17, 6′-(Bromomethyl)spironaphthoxazin]

- Kd (G-actin [4]; data not shown, read-out: kd of complex with G-actin): 100 nM
- effect on actin polymerization (G-actin [5]): inhibits the polymerization of G-actin
B1: CapG: 40 kD, Ca^2+ regulated actin filament barbed-end capping protein, His-tagged, cloned from mouse cDNA library (protein, UniProt P24452 1-352, looked up)
Macrophage-capping protein: MYTPIPQSGSPFPASVQDPGLHIWRVEKLKPVPIARESHGIFFSGDSYLVLHNGPEEASHLHLWIGQQSSRDEQGACAVLAVHLNTLLGERPVQHREVQGNESDLFMSYFPRGLKYYREGGVESAFHKTTSGARGAAIRKLYQVKGKKNIRATERPLSWDSFNTGDCFILDLGQNIFAWCGGKSNILERNKARDLALAIRDSERQGKAQVEIITDGEEPAEMIQVLGPKPALKEGNPEEDITADQTRPNAQAAALYKVSDATGQMNLTKVADSSPFASELLIPDDCFVLDNGLCAQIYIWKGRKANEKERQAALQVADGFISRMRYSPNTQVEILPQGRESPIFKQFFKNWK
modifications: His tag
notes: 40 kD, Ca^2+ regulated actin filament barbed-end capping protein, His-tagged, cloned from mouse cDNA library
- Kd [3]: 1000 nM

- binding to G-actin (G-actin [4]; Prodan-G-actin): binds poorly to G-actin
- effect on actin polymerization (G-actin [5]; listed as Caged CapG): almost normal polymerization kinetics
B2: caged CapG: CapG labeled with 3-4 NVOC groups using NVOC-Cl (protein, UniProt P24452 1-352, looked up)
Macrophage-capping protein: B1 Macrophage-capping protein
modifications: caged with 3-4 NVOC groups
notes: CapG labeled with 3-4 NVOC groups using NVOC-Cl
- effect on actin polymerization (G-actin [5]): limited effect on the rate of actin polymerization
